Here are results for one molecule from US20200299408A1 (Genentech, published 2020).

Changes are numbered by the printed parent chain.

Assay [1] concerns the target T1, single chain human CD3ε-26mer-CD3γ (CD3εγ) (human).
T1 construct: also called human CD3εγ
T1 chain: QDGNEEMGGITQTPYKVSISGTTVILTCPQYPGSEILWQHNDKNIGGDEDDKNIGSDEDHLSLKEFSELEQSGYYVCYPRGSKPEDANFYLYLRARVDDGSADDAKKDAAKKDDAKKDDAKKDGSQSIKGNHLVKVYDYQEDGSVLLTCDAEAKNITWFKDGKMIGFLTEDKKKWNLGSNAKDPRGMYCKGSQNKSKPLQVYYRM
The experiment in a line: Biacore single cycle kinetics: Fab captured by anti-human Fab, human CD3εγ injected (3-250 nM). The source says: In addition, position 95 in HVR-H3 was also mutated to serine, threonine, or glutamate. Variants with these single point mutations were expressed as Fabs in HEK293 cells and initially screened with a single cycle kinetics method on a Biacore T100. Selected variants were also scaled up and purified for a conventional multi-cycle kinetics method. For single cycle kinetics, Biacore Series S CM5 sensor chips were immobilized with anti-human Fab antibodies (Human Fab capture kit, GE Healthcare). […] For conventional multi-cycle kinetics, human CD3εγ, cyno CD3εγ, or a 27-mer peptide were immobilized on Biacore Series S CM5 sensor chip using the amine coupling kit from Biacore. Serial 3-fold dilutions of each Fab variant were injected at a flow rate of 30 μl/min. Each sample was analyzed with a protocol of 3-minute association and 3-minute dissociation. In both methods, the Biacore chips were regenerated using 10 mM Glycine (pH 1.7). Binding response was corrected by blank subtraction and a 1:1Languir model of simultaneous fitting of kₒₙ and koff was used for kinetics analysis.
(In general: Surface plasmon resonance follows binding to a sensor surface in real time, without labels.)

The target in assay [2] is T1, single chain human CD3ε-26mer-CD3γ …. Description: Biacore, human CD3εγ on chip, Fab in flow through. As to the method: Binding affinities for the each of the CD3/CD20 TDBs were tested by Biacore or FACS analysis, as described above for the anti-CD3 antibodies. Briefly, for Biacore binding assays, human CD3εγ was immobilized on Biacore Series S CM5 sensor chip using the amine coupling kit from Biacore and CD3/CD20 TDBs or Fab variants thereof were in the flow through. For FACS binding assays, either Bjab cells (for B cell antigens) or Jurkat cells (for CD3 antigen) were incubated with various concentrations of TDB antibodies at 4° C. for 30 minutes, then cells were washed and incubated with 2nd antibody (anti-huIgG-PE; BD Bioscience) for another 15 minutes, before cells were washed again and ready for FACS analysis.

The target is the same in assay [3]. The experiment in a line: Biacore, monovalent KD of the CD3 arm; CD3 antigen not named on the sheet (reactivity hu, cyno).
The next assay has as its target T2, G8A.
T2 construct: Residue number counts from the N-terminus of CD3ε; also called CD3εγ G8A
T2 single chain CD3ε-26mer linker-CD3γ: T1 chain with G8A
The experiment in a line: SPR (Biacore 4000): CD3εγ variant captured from the periplasmic fraction on UCHT1v9; analyte a bispecific antibody with one 38E4v1 arm and one irrelevant arm, 0.39-100 nM. As to the method: (§1) The secreted CD3εγ variants were captured from the crude periplasmic fraction using anti-CD3 antibody UCHT1v9. UCHT1v9 was immobilized on a CM5 serios S chip through amine coupling using the anti-human IgG (Fc) antibody capture kit (BR-1008-39) from GE Healthcare. SPR measurements were performed on the Biacore 4000 instrument, utilizing kinetic evaluation software. In order to measure monovalent binding affinities, anti-CD3 bispecific antibodies were used in which one arm was the anti-CD3 to be tested and the arm recognized an irrelevant antigen. The bispecific anti-CD3 antibodies were passed over the captured supernatant in a concentration series of two-fold dilutions from 0.39 to 100 nM. The resulting kinetics (FIG. 13D) were measured and calculated using Biacore 4000 BIAevaluation software (product code 28-9664-57).

Another assay has as its target T3, E5A.
T3 construct: Residue number counts from the N-terminus of CD3ε; also called CD3εγ E5A; CD3 mutant E5A
T3 single chain CD3ε-26mer linker-CD3γ: T1 chain with E5A
Described as above. As to the method: as §1

A further assay deals with T4, N4A.
T4 construct: Residue number counts from the N-terminus of CD3ε; also called CD3εγ N4A; CD3 mutant N4A
T4 single chain CD3ε-26mer linker-CD3γ: T1 chain with N4A
The assay is described as above. As to the method: as §1

The next assay deals with T5, G3A.
T5 construct: Residue number counts from the N-terminus of CD3ε; also called CD3εγ G3A; CD3 mutant G3A
T5 single chain CD3ε-26mer linker-CD3γ: T1 chain with G3A
The assay is described as above. As to the method:
as §1

Assay [4] deals with T1, single chain human CD3ε-26mer-CD3γ …. Description: monovalent binding affinity, method not stated on the sheet; column huCD3εγ.

B1: hu38E4.v1 Fab (Fab, V domains shown)
VH: EVQLVQSGAEVKKPGASVKVSCKASGFTFTSYYIHWVRQAPGQGLEWIGWIYPENDNTKYNEKFKDRVTITADTSTSTAYLELSSLRSEDTAVYYCARDGYSRYYFDYWGQGTLVTVSS
VL: DIVMTQSPDSLAVSLGERATINCKSSQSLLNSRTRKNYLAWYQQKPGQSPKLLIYWTSTRKSGVPDRFSGSGSGTDFTLTISSLQAEDVAVYYCKQSFILRTFGQGTKVEIK
notes: Humanized anti-CD3 Fab; Point mutants of it were expressed as Fabs in HEK293 cells
B1: the Kd – broadly, the constant that tells how readily two partners part at equilibrium – turned out to be 3.4 nM in assay [1]; 0.8 nM in assay [2]; 1.3 nM in assay [3]; 8 nM with G8A; 7 nM with E5A; 3 nM with N4A. The Kd with G3A was determined as 7 nM; in assay [4], 0.5 nM. Besides, the koff – broadly, the rate constant with which the complex falls apart – was 0.00108 s⁻¹ in assay [1] and 0.00507 s⁻¹ in assay [2]. Further, the figures for the kon in assay [1] and in assay [2] were 320000 M⁻¹ s⁻¹ and 6.06e+06 M⁻¹ s⁻¹, respectively.
